# In the supplement of paper PMC11246515:
# ± gives the standard deviation of the averaged measurements.
# Assay: total protein half-life in vivo (active degradation + dilution); higher = more stable protein
# [1] = E. coli NCM3722 delta-clpP delta-lon delta-hslV, growth: N-lim chemostat, doubling time 6 h
# [2] = E. coli NCM3722 delta-clpP, growth: N-lim chemostat, doubling time 6 h
# [3] = E. coli NCM3722 delta-hslV, growth: N-lim chemostat, doubling time 6 h
# [4] = E. coli NCM3722 delta-lon, growth: N-lim chemostat, doubling time 6 h
# [5] = E. coli NCM3722 delta-smpB, growth: N-lim chemostat, doubling time 6 h
# [6] = wild type E. coli NCM3722, growth: C-lim chemostat, doubling time 3 h
# [7] = wild type E. coli NCM3722, growth: C-lim chemostat, doubling time 6 h
# [8] = wild type E. coli NCM3722, growth: C-lim chemostat, doubling time 12 h
# [9] = wild type E. coli NCM3722, growth: N-lim chemostat, doubling time 6 h
# [10] = wild type E. coli NCM3722, growth: N-lim chemostat, doubling time 12 h
# [11] = wild type E. coli NCM3722, growth: P-lim chemostat, doubling time 6 h
# [12] = wild type E. coli NCM3722, growth: P-lim chemostat, doubling time 12 h
Sequence,total protein half-life in vivo [1],total protein half-life in vivo [2],total protein half-life in vivo [3],total protein half-life in vivo [4],total protein half-life in vivo [5],total protein half-life in vivo [6],total protein half-life in vivo [7],total protein half-life in vivo [8],total protein half-life in vivo [9],total protein half-life in vivo [10],total protein half-life in vivo [11],total protein half-life in vivo [12]
MRLLPLVAAATAAFLVVACSSPTPPRGVTVVNNFDAKRYLGTWYEIARFDHRFERGLEKVTATYSLRDDGGLNVINKGYNPDRGMWQQSEGKAYFTGAPTRAALKVSFFGPFYGGYNVIALDREYRHALVCGPDRDYLWILSRTPTISDEVKQEMLAVATREGFDVSKFIWVQQPGS [P0A901],5.85 ± 0.12 h,6.28 ± 0.6 h,5.56 ± 0.29 h,6.82 ± 0.84 h,5.8 ± 0.32 h,2.82 ± 0.082 h,5.41 ± 0.38 h,10.6 ± 2.6 h,5.78 ± 0.14 h,11.8 ± 1.4 h,5.43 ± 0.26 h,11.04 ± 0.072 h
MNIENLKTKAEADISEYITKKIIELKKKTGKEVTSIQFTAREKMTGLESYDVKINLI,6.69 ± 0.78 h,6.7 ± 1.3 h,5.74 ± 0.34 h,6.46 ± 0.88 h,5.57 ± 0.3 h,3.24 ± 0.47 h,5.85 ± 0.45 h,10.6 ± 1.6 h,5.71 ± 0.32 h,13.6 ± 3.4 h,5.4 ± 0.96 h,–
MQVKTQSCVVAGKKTVAVTEQTIDWNNNGTLVQITRGGICGSDLHYYQEGKVGNFMIKAPMVLGHEVIGKVIHSDSSELHEGQTVAINPSKPCGHCKYCIEHNENQCTDMRFFGSAMYFPHVDGGFTRYKMVETSQCVPYPAKADEKVMAFAEPLAVAIHAAHQAGELQGKRVFISGVGPIGCLIVSAVKTLGAAEIVCADVSPRSLSLGKEMGADVLVNPQNDDMDHWKAEKGYFDVSFEVSGHPSSVNTCLEVTRARGVMVQVGMGGAMAEFPMMTLIGKEISLRGSFRFTSEFNTAVSWLANGVINPLPLLSAEYPFTDLEEALRFAGDKTQAAKVQLVF,–,–,–,–,–,1.348 ± 0.0073 h,2.71 h,5.81 h,–,–,–,–
MQQRRPVRRALLSVSDKAGIVEFAQALSARGVELLSTGGTARLLAEKGLPVTEVSDYTGFPEMMDGRVKTLHPKVHGGILGRRGQDDAIMEEHQIQPIDMVVVNLYPFAQTVAREGCSLEDAVENIDIGGPTMVRSAAKNHKDVAIVVKSSDYDAIIKEMDDNEGSLTLATRFDLAIKAFEHTAAYDSMIANYFGSMVPAYHGESKEAAGRFPRTLNLNFIKKLDMRYGENSHQQAAFYIEENVKEASVATATQVQGKALSYNNIADTDAALECVKEFAEPACVIVKHANPCGVAIGNSILDAYDRAYKTDPTSAFGGIIAFNRELDAETAQAIISRQFVEVIIAPSASEEALKITAAKQNVRVLTCGQWGERVPGLDFKRVNGGLLVQDRDLGMVGAEELRVVTKRQPSEQELRDALFCWKVAKFVKSNAIVYAKNNMTIGIGAGQMSRVYSAKIAGIKAADEGLEVKGSSMASDAFFPFRDGIDAAAAAGVTCVIQPGGSIRDDEVIAAADEHGIAMLFTDMRHFRH,5.11 ± 0.42 h,4.51 ± 0.51 h,4.73 ± 0.56 h,4.99 ± 0.032 h,4.41 ± 0.28 h,3.19 ± 0.3 h,5.88 ± 0.38 h,9.3 ± 0.86 h,4.36 ± 0.22 h,6.9 ± 0.074 h,5.961 ± 0.037 h,11.9 ± 0.6 h
MAIDENKQKALAAALGQIEKQFGKGSIMRLGEDRSMDVETISTGSLSLDIALGAGGLPMGRIVEIYGPESSGKTTLTLQVIAAAQREGKTCAFIDAEHALDPIYARKLGVDIDNLLCSQPDTGEQALEICDALARSGAVDVIVVDSVAALTPKAEIEGEIGDSHMGLAARMMSQAMRKLAGNLKQSNTLLIFINQIRMKIGVMFGNPETTTGGNALKFYASVRLDIRRIGAVKEGENVVGSETRVKVVKNKIAAPFKQAEFQILYGEGINFYGELVDLGVKEKLIEKAGAWYSYKGEKIGQGKANATAWLKDNPETAKEIEKKVRELLLSNPNSTPDFSVDDSEGVAETNEDF [P0A7G6],6.6 ± 1 h,5.85 ± 0.55 h,3.37 ± 0.057 h,3.272 ± 0.025 h,3.32 ± 0.036 h,2.86 ± 0.031 h,4.82 ± 0.084 h,11.7 ± 4.1 h,3.4281 ± 0.0021 h,4.94 ± 0.44 h,4.77 ± 0.2 h,9.63 ± 0.48 h
MLFTIQLIIILICLFYGARKGGIALGLLGGIGLVILVFVFHLQPGKPPVDVMLVIIAVVAASATLQASGGLDVMLQIAEKLLRRNPKYVSIVAPFVTCTLTILCGTGHVVYTILPIIYDVAIKNNIRPERPMAASSIGAQMGIIASPVSVAVVSLVAMLGNVTFDGRHLEFLDLLAITIPSTLIGILAIGIFSWFRGKDLDKDEEFQKFISVPENREYVYGDTATLLDKKLPKSNWLAMWIFLGAIAVVALLGADSDLRPSFGGKPLSMVLVIQMFMLLTGALIIILTKTNPASISKNEVFRSGMIAIVAVYGIAWMAETMFGAHMSEIQGVLGEMVKEYPWAYAIVLLLVSKFVNSQAAALAAIVPVALAIGVDPAYIVASAPACYGYYILPTYPSDLAAIQFDRSGTTHIGRFVINHSFILPGLIGVSVSCVFGWIFAAMYGFL [P0ABN9],7.71 h,5.98 ± 1.5 h,5.58 ± 0.66 h,–,–,–,–,–,6.04 ± 0.11 h,12.9 ± 1.5 h,–,> 16 h
MTTFHSLTVAKVESETRDAVTITFAVPQPLQEAYRFRPGQHLTLKASFDGEELRRCYSICRSYLPGEISVAVKAIEGGRFSRYAREHIRQGMTLEVMVPQGHFGYQPQAERQGRYLAIAAGSGITPMLAIIATTLQTEPESQFTLIYGNRTSQSMMFRQALADLKDKYPQRLQLLCIFSQETLDSDLLHGRIDGEKLQSLGASLINFRLYDEAFICGPAAMMDDAETALKALGMPDKTIHLERFNTPGTRVKRSVNVQSDGQKVTVRQDGRDREIVLNADDESILDAALRQGADLPYACKGGVCATCKCKVLRGKVAMETNYSLEPDELAAGYVLSCQALPLTSDVVVDFDAKGMA,4.66 ± 0.67 h,–,–,–,–,–,–,–,–,–,–,–
MKSSTTIITAYFDIGRGDWTANKGFREKLARSVDVYFSYFERLAALENEMIIFTSPDLKPRVEAIRNGKPTTVIVIDIKKKFRYIRSRIEKIQKDESFTNRLEPRQLKNPEYWSPEYVLVCNLKAYFVNKAINMGLVKTPLVAWIDFGYCHKPNVTRGLKIWDFPFDESKMHLFTIKKGLTVTSQQQVFDFMIGNHVYIIGGAIVGSQHKWKEFYKLVLESQKITLNNNIVDDDQGIFVMCYYKRPDLFNLNYLGRGKWFDLFRCFRSNTLGAKMQALRIFLSRK,6.61 ± 0.098 h,6.18 ± 0.28 h,5.99 ± 0.11 h,6.49 ± 0.38 h,5.52 ± 0.26 h,2.82 ± 0.13 h,5.548 ± 0.042 h,10.7 ± 0.57 h,5.82 ± 0.57 h,11.6 ± 0.62 h,5.85 ± 0.86 h,11.4 ± 0.17 h
MKTLGEFIVEKQHEFSHATGELTALLSAIKLGAKIIHRDINKAGLVDILGASGAENVQGEVQQKLDLFANEKLKAALKARDIVAGIASEEEDEIVVFEGCEHAKYVVLMDPLDGSSNIDVNVSVGTIFSIYRRVTPVGTPVTEEDFLQPGNKQVAAGYVVYGSSTMLVYTTGCGVHAFTYDPSLGVFCLCQERMRFPEKGKTYSINEGNYIKFPNGVKKYIKFCQEEDKSTNRPYTSRYIGSLVADFHRNLLKGGIYLYPSTASHPDGKLRLLYECNPMAFLAEQAGGKASDGKERILDIIPETLHQRRSFFVGNDHMVEDVERFIREFPDA [P0A993],4.22 ± 0.099 h,3.02 ± 0.088 h,3.76 ± 0.66 h,3.84 ± 0.51 h,3.21 ± 0.12 h,2.93 ± 0.38 h,5.02 ± 0.3 h,8.6 ± 0.59 h,3.19 ± 0.06 h,4.68 ± 0.09 h,5.796 ± 0.011 h,10.6 ± 0.24 h
